Assay results: patent US20210309745A1 (TAYU HUAXIA BIOTECH MEDICAL GROUP, published 2021)

Biological target: hPD-L1 (antigen of the Fortebio Octet assay) (human, UniProt Q9NZQ7 19-238, limits assumed)
Assay: BLI, Fortebio Octet; format not stated
Text: The anti-hPD-L1 scFv-hFc Wt and scFv-hFc Mt antibodies were identified by SDS Page Gel […]. […] The binding affinities of the scFv-hFc antibodies to hPD-L1, as compared to that of the parental antibody were examined by FACS and the results are shown in FIG. 7. […] The binding affinities and kinetics of the scFv-hFc antibodies (scFv-hFc Wt and scFv-hFc Mt) to hPD-L1, as compared to that of the parental antibody (anti-PD-L1 IgG1), were further analyzed using the Fortebio Octet system.

Chain of hPD-L1 (antigen of the Fortebio Octet assay) (Q9NZQ7 19-238 limits assumed): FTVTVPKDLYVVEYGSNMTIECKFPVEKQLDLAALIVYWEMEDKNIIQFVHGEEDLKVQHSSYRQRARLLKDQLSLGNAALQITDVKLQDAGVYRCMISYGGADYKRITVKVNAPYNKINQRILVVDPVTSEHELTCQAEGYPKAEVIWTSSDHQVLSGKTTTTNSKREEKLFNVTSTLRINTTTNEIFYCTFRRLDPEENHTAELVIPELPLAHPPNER

koff: 2.72e-05 s⁻¹
B1: anti-PD-L1 IgG1 (parental antibody of Example 3) (antibody, V domains shown)
VH: EVQLQQSGAELVKPGASVKLSCTASGFNIKDTYMYWVKQRPEQGLECIGRIDPANDNTKYDPKFQGKATITADTSSNTAYVQLASLTSEDTAVYYCARAKNLLNYFDYWGQGTTLTVSS
VL: DIQMTQSPSSLSASLGERVTLSCRASQEISGYLSWLQQKPDGTIKRLIYATSTLDSGVPKRFSGSRSGSDYSLTISSLESEDFADYYCLQYAIYPLTFGAGTKLELKR
notes: IgG1; also called parental control antibody
